According to patent publication US20180086841A1 (Merck Sharp & Dohme, published 2018):
Where a chain is given by its changes, count along the chain named. Values belong to the binder of their own block, whether it stands above or below them.

Experiments:
human CD27 (A59T) = biological target: T1, human CD27 (A59T) (human, UniProt P26842 21-260); assay: flow cytometry on transiently transfected CHO-K1 cells
T1 construct: also called hCD27 (A59T); human CD27 variant p.Ala59Thr

Q41A [1] = biological target: T2, Q41A; assay: flow cytometry on CHO-K1 transfectants, cell hatched (loss of binding)
T2 construct: also called hCD27 Q41A
T2 receptor chain: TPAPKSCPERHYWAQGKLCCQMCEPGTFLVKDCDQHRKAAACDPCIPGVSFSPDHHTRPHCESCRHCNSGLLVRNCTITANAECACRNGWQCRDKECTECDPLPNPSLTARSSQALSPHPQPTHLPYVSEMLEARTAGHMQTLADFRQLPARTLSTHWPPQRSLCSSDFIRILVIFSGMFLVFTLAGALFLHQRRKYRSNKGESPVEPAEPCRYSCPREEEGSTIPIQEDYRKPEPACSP
Protocol: (§1) The ability of several anti-hCD27 antibodies to bind to a series of hCD27 alanine mutants was determined using CHO-K1 cells, transiently transfected pCI-neo empty vector, pCI-neo.hCD27 and several pCI-neo.CD27Ala mutant constructs.
(§2) Detached cells were transferred to 96 wells round-bottomed well plates at approximately 1.2×10⁵ cells/well. After spinning down the cells, discarding the supernatants and re-suspending the cells in the residual volume, the primary antibodies were added and incubated for 30 minutes at 4° C. Cells were washed three times with DPBS/BSA 1%, followed by centrifugation, discarding of the supernatants and re-suspension in the residual volume. […] After washing once, antibody binding was detected using the HTS plate reader (FACS Canto II) and FlowJo software for data analysis. Debris, dead cells and doublets were excluded from the analysis. Binding was expressed as the geometric mean of the FITC signal, relative to antibody binding to hCD27, which was set at 100%.

D43A = biological target: T3, D43A; assay: as above
T3 construct: also called hCD27 D43A
T3 receptor chain: T2 receptor chain with A41Q, D43A
Protocol: as §1, §2

K31A = biological target: T4, K31A; assay: as above
T4 construct: also called hCD27 K31A
T4 receptor chain: T2 receptor chain with K31A, A41Q
Protocol: as §1, §2

D32A = biological target: T5, D32A; assay: flow cytometry on CHO-K1 transfectants;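 note: Anti-hCD27 antibodies tested on transiently transfected CHO-K1 cells bearing hCD27 alanine mutants, 30 min at 4 °C primary incubation, FITC readout excluding debris, dead cells and doublets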
T5 construct: also called hCD27 D32A
T5 receptor chain: T2 receptor chain with D32A, A41Q
Protocol: (§3) The hCD27 variants that were tested are listed. Amino acids correspond to the UniProt P26842-1 sequence. Amino acids 1-20 constitute the signal peptide. Binding is expressed as the geometric mean of the FITC signal, relative to antibody binding to hCD27, which was set at 100%.
as §1, §2

Q91A [2] = biological target: T6, Q91A; assay: flow cytometry on CHO-K1 transfectants;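 note: Anti-hCD27 antibodies tested on transiently transfected CHO-K1 cells bearing hCD27 alanine mutants, 30 min at 4 °C primary incubation, FITC readout excluding debris, dead cells and doublets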
T6 construct: also called hCD27 Q91A
T6 receptor chain: T2 receptor chain with A41Q, Q91A
Protocol: as §3, §1, §2

V30A = biological target: T7, V30A; assay: flow cytometry on CHO-K1 transfectants, right sub-column
T7 construct: also called hCD27 V30A
T7 receptor chain: T2 receptor chain with V30A, A41Q
Protocol: as §3, §1, §2

R87A = biological target: T8, R87A; assay: as above
T8 construct: also called hCD27 R87A
T8 receptor chain: T2 receptor chain with A41Q, R87A
Protocol: as §3, §1, §2

Q41A [3] = biological target: T2, Q41A; assay: as above
Protocol: as §3, §1, §2

R93A = biological target: T9, R93A; assay: as above
T9 construct: also called hCD27 R93A
T9 receptor chain: T2 receptor chain with A41Q, R93A
Protocol: as §3, §1, §2

Q91A [4] = biological target: T6, Q91A; assay: as above
Protocol: as §3, §1, §2

human CD27 [5] = biological target: T10, human CD27 (human, UniProt P26842 21-260); assay: flow cytometry MFI, CD8+ T cells of human PBMC, N=2 donors
T10 construct: also called hCD27; HsCD27
Protocol: (§4) Labeled cells were washed by re-suspending them in 150 ul of staining buffer (SB) followed by centrifugation at 300 g for 5 minutes. Cells were then resuspended in 100 ul of SB containing primary anti-CD27 antibodies at various concentrations, incubated in the dark at 4° C. for 30 minutes, followed by washing and centrifugation steps as previously described. […] Cells were incubated for 30 minutes at 4° C. in the dark, followed by washing and centrifugation steps. Next, cells were stained with a cocktail of phenotypic antibodies for surface markers (CD3, CD4, CD8, CD11b) and incubated for 30 minutes at 4° C. in the dark, followed by washing and centrifugation steps. […] Samples were acquired in a LSR-Fortessa flow cytometer (BD Biosciences) using the high throughput sampler and data analyzed by FlowJo software (Tree Star Inc).

human CD27 [6] = biological target: T10, human CD27; assay: flow cytometry MFI, CD4+ T cells of human PBMC, N=2 donors
Protocol: as §4

binding result (human CD27 (A59T)): no binding
binding, WT hCD27 = 100 (GM FITC) (Q41A [1]): 33.9%
binding, WT hCD27 = 100 (GM FITC) (D43A): 31%
binding, WT hCD27 = 100 (GM FITC) (K31A): 30.3%
binding, WT hCD27 = 100 (GM FITC) (D32A): 50.6%
binding, WT hCD27 = 100 (GM FITC) (Q91A [2]): 136%
B1: hCD27.15-6B (antibody, human IgG4 S228P, kappa, V domains shown)
VH: QVQLVQSGAEVKKPGASVKVSCKASGFIIKATYMHWVRQAPGQRLEWMGRIDPANGETKYDPKFQVRVTITADTSASTAYMELSSLRSEDTAVYYCARYAWYFDVWGQGTLVTVSS
VL: DIQMTQSPSSLSASVGDRVTITCRASENIYSFLAWYQQKPGKAPKLLIYHAKTLAEGVTSRFSGSGSGTDFTLTISSLQPEDSATYYCQHYYGSPLTFGQGTRLEIKR
notes: also called hCD27.15 (humanized 6B); humanized hCD27.15 (human IgG4, Clone 6B)

binding, WT hCD27 = 100 (GM FITC) (V30A): 94%
binding, WT hCD27 = 100 (GM FITC) (R87A): 111%
binding, WT hCD27 = 100 (GM FITC) (Q41A [3]): 80.5%
binding, WT hCD27 = 100 (GM FITC) (R93A): 90%
binding, WT hCD27 = 100 (GM FITC) (Q91A [4]): 136%
EC50 (human CD27 [5]): 0.0194 nM
EC50 (human CD27 [6]): 0.0645 nM
B2: hCD27.131A (mouse parental 131A) (antibody, mouse IgG1, V domains shown)
VH: QIQLVQSGPELKKPGETVKISCKASGYTFTNYGMNWVKQAPGKGLKWMGWINTNTGEPTYAEEFKGRFAFSLETSATTAYLQINNLKNEDTATYFCAREGDAMDYWGQGTSVTVSS
VL: QIVLTQSPAIMSASPGEKVTMTCSASSSVSYMHWYQQKSGTSPKRWIYDTSKLASGVPARFSGSGSGTSYSLTISSMEAEDAATYYCQQWNSYPFTFGSGTKLEIK
notes: Mouse IgG1 antibody; also called mouse hCD27.131A
